Results from US20190322748A1 (Hoffmann-La Roche, published 2019).
Where two headings read alike, the source gives them in different places.

B1: PD1-0103-0312 (antibody, human IgG1, V domains shown)
VH: EVQLLESGGGLVQPGGSLRLSCAASGFSFSSYTMSWVRQAPGKGLEWVATISGGGRDIYYPDSVKGRFTISRDNSKNTLYLQMNSLRAEDTAVYYCVLLTGRVYFALDSWGQGTLVTVSS
VL: DIVMTQSPDSLAVSLGERATINCKASESVDTSDNSFIHWYQQKPGQSPKLLIYRSSTLESGVPDRFSGSGSGTDFTLTISSLQAEDVAVYYCQQNYDVPWTFGQGTKVEIK
notes: Humanized
B2: PD1-0103-0314 (antibody, human IgG1, V domains shown)
VH: EVQLLESGGGLVQPGGSLRLSCAASGFSFSSYTMSWVRQAPGKGLEWVATISGGGRDIYYPDSVKGRFTISRDNSKNTLYLQMNSLRAEDTAVYYCVLLTGRVYFALDSWGQGTLVTVSS
VL: EIVLTQSPATLSLSPGERATLSCRASESVDTSDNSFIHWYQQKPGQSPRLLIYRSSTLESGIPARFSGSGSGTDFTLTISSLEPEDFAVYYCQQNYDVPWTFGQGTKVEIK
notes: Humanized
B3: PD1-0103-0313 (antibody, human IgG1, V domains shown)
VH: EVQLLESGGGLVQPGGSLRLSCAASGFSFSSYTMSWVRQAPGKGLEWVATISGGGRDIYYPDSVKGRFTISRDNSKNTLYLQMNSLRAEDTAVYYCVLLTGRVYFALDSWGQGTLVTVSS
VL: DVVMTQSPLSLPVTLGQPASISCRASESVDTSDNSFIHWYQQRPGQSPRLLIYRSSTLESGVPDRFSGSGSGTDFTLKISRVEAEDVGVYYCQQNYDVPWTFGQGTKVEIK
notes: Humanized
B4: PD1-0103-0315 (antibody, human IgG1, V domains shown)
VH: EVQLLESGGGLVQPGGSLRLSCAASGFSFSSYTMSWVRQAPGKGLEWVATISGGGRDIYYPDSVKGRFTISRDNSKNTLYLQMNSLRAEDTAVYYCVLLTGRVYFALDSWGQGTLVTVSS
VL: EIVLTQSPATLSLSPGERATLSCRASESVDTSDNSFIHWYQQKPGQSPRLLIYRSSTLESGIPARFSGSGSGTDFTLTISSLEPEDFAVYYCQQNYDVPWTFGQGTKVEIK
notes: Humanized

How the values were obtained:
[1] = target: T1, biotinylated PD1-ECD-AviHis (human, UniProt Q15116 25-170, biotinylated, site not stated); assay: ELISA on coated biotinylated PD1-ECD-AviHis
T1 construct: also called huPD1; hu PD1

[2] = target: T1, biotinylated PD1-ECD-AviHis; assay: ELISA on coated biotinylated PD1-ECD-AviHis; remark: listed apart in the source
[3] = target: T2, full-length human PD1 on cells (CHO-K1 stably transfected with plasmid 15311_hPD1-fl_pUC_Neo) (human, UniProt Q15116 25-288); assay: cell ELISA on CHO-K1 cells with full-length human PD1
T2 construct: Also used as the target of the MLR and reporter read-outs; also called CHO-PD1; PD1 on primary human T cells in the MLR

human PD1-ECD [4] = target: T3, human PD1-ECD (human, UniProt Q15116 25-170); assay: SPR Biacore T200, Ab captured on anti-human IgG, 25 C
T3 construct: SPR analyte; also called hu PD1-ECD

human PD1-ECD [5] = target: T3, human PD1-ECD; assay: SPR; row head 'Affinity KD 37°C [nM] *)', second of two values (equals the 25 C value of Table 9)
[6] = target: T4, biotinylated cynoPD1-ECD-Biotin (cynomolgus); assay: ELISA, cynomolgus cross-reactivity
T4 construct: extracellular domain; also called cyPD1

[7] = target: T4, biotinylated cynoPD1-ECD-Biotin; assay: ELISA on coated cynoPD1-ECD-Biotin
human PD1-ECD [8] = target: T3, human PD1-ECD; assay: SPR; row head 'Affinity KD 37°C [nM] *)', first of two values, footnote not explained

Binder	EC50 [1]	EC50 [2]	EC50 [3]	Kd (human PD1-ECD [4])	koff (human PD1-ECD [4])	kon (human PD1-ECD [4])	Kd (human PD1-ECD [5])	EC50 [6]	EC50 [7]	Kd (human PD1-ECD [8])
B1	0.1 nM	0.011 µg/mL	0.0101 µg/mL	1.8 nM	0.000345 s⁻¹	195000 M⁻¹ s⁻¹	1.8 nM	0.08 nM	0.0083 µg/mL	1.5 nM
B2	0.07 nM	0.011 µg/mL	0.0077 µg/mL	1.5 nM	0.000279 s⁻¹	187000 M⁻¹ s⁻¹	1.5 nM	0.05 nM	0.0083 µg/mL	1.6 nM
B3	0.07 nM	0.015 µg/mL	0.0108 µg/mL	2.3 nM	0.000367 s⁻¹	160000 M⁻¹ s⁻¹	2.3 nM	0.06 nM	0.011 µg/mL	1.9 nM
B4	0.06 nM	0.01 µg/mL	0.0073 µg/mL	1.5 nM	0.000291 s⁻¹	189000 M⁻¹ s⁻¹	1.5 nM	0.04 nM	0.0079 µg/mL	1.7 nM
